Assay results reported in the supplement of paper PMC9170038.

Tests used:
[1] = tested on: MS2 coat protein; experiment: apparent KD of MS2 coat protein, switch OFF state (with FMN for OFF switches, without FMN for ON switches); designed switch direction (-1 OFF switch, 1 ON switch): 1; higher = weaker reporter binding; settings: FMN input: 0 or 200 uM; Eterna round: R93 (includes R88 designs)
In short: (§1)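 On-chip transcription from Illumina sequencing clusters produced the designed RNA switches. These were titrated with SNAP-549-labelled MS2 coat protein (twofold steps, 0.7 or 1.5 nM to 3 µM) in 100 mM Tris-HCl pH 7.5, 80 mM KCl, 4 mM MgCl2, with or without constant ligand. The apparent KD given is the per-design median of normalised cluster binding-curve fits.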

[2] = tested on: MS2 coat protein; experiment: apparent KD of MS2 coat protein, switch ON state; designed switch direction (-1 OFF switch, 1 ON switch): 1; higher = weaker reporter binding; settings: FMN input: 0 or 200 uM; Eterna round: R93 (includes R88 designs)
In short: as §1

Row | Sequence | apparent KD of MS2 coat protein [1] [nM] | apparent KD of MS2 coat protein [2] [nM]
1 | AACAAUCUAUCUGAGGAUAUGUGUCGAAAGACAUGAGGAUCACCCAUGUGAAAACAUGAAAAAUCACAGAAGGCAGAUAGAUUGA [SS2: 1143] | 146 | 45.8
2 | AACAGACAUGAGGAUCACCCAUGUAGAAUUAUGGGAGGAUAUACAAAGACGAGAGUCAGAGUAGAAGGCCUAGGAG [salish99-ss1-162] | 44.3 | 22.1
3 | AACUACAUUAUGAAGGAUAUCCGCGUCUAGACAUGAGGAUCACCCAUGUAUACUUGGAUCAUGCAGGAGAAGGUCAAGGGUGAUU [JR_SS002_Sub1209] | 122 | 178
4 | AAGAAACAUGAGGAUCACCCAUGUAAACUCGAGAGAGGAUAUCGUACAUGGAAGAUUCAACGAGAAGGCUCUAGAG [Same State 1.1a (Pariah 3, G boost at 31, GC 76/28)] | 41.5 | 23.8
5 | AAGAAACAUGAGGAUCACCCAUGUAAGAAUAUGGGAGGAUAUACAAGGACAAGAGUCAAGGUAGAAGGCCUAAGAA [Mat - Same State 1 - Meechl mod - D143] | 118 | 33
6 | AAGAAACAUGAGGAUCACCCAUGUACCCAAAAGCGAGGAUAUGGGAAAGAAAGAAAGAAACCAGAAGGCGCAUGAA [Darius II] | 35.5 | 20
7 | AAGAAACAUGAGGAUCACCCAUGUGAGAUAAACACAGGAUAUGCGAAAAGAAACAAAGAAGCAGAAGGGUGAAGAA [Mat - Same State 1 - Tesla mod - 55] | 126 | 34.9
8 | AAGACACAUGAGGAUCACCCAUGUCAAGAGAGAUGAGGAUAUCUGAGUUAGUUAAGUUAAGGAGAAGGCAUGAAAA [LROPPY Same State 1 - v01_deltaG=3.81] | 59.4 | 31
9 | AAUAAACAUGAGGAUCACCCAUGUACCGACCACUAAGGAUAUGGGCGAAUAACAGCUCGGCCAGAAGGUAGAGGUG [Gebimarabi] | 62.5 | 46.7
10 | AAUAAACAUGAGGAUCACCCAUGUCUUUUACAUCAAGGAUAUGGGAUCGGAAAUCCGACACCAGAAGGUGAGUAGA [Userra] | 300 | 157
11 | AAUAAUUAUAUGGAGGAUAUCCGUAAUAAGACAUGAGGAUCACCCAUGUAAUAAGGGUAAAUAAAGGAGAAGGCCAAGGGUGAAA [JR_SS002_Sub003] | 184 | 98.4
12 | AAUACACAUAGUCAGGAUAUCAAAACUAAGACAUGAGGAUCACCCAUGUAAUAAGUAAAAGUAAAUGAGAAGGGACAGGGUGACC [JR_SS002_Sub404] | 63.9 | 130
13 | AAUAUACAUGAGGAUCACCCAUGUUUUAAUAACUGAGGAUAUACGGGUGAAAACAGCAUAGUAGAAGGCAGAAAAA [SameState1 Malc#5] | 89.1 | 42.2
14 | AAUAUACAUGAGGAUCACCCAUGUUUUAAUAGUUGAGGAUAUACGGGUGAAAAUAGCAUAGUAGAAGGCGAGUGUA [SameState1 Malc#12] | 106 | 146
15 | AAUAUAUUAAGUGAGGAUAUCGAAGAAAAAACAUGAGGAUCACCCAUGUGGGAAACCUGGUCGGGUGAGAAGGCACUUAAUAUAU [Samwise Clockwise 27 - Jieux - Same State 2] | 85.4 | 45.5
16 | AAUCCAAAUAGUCAGGAUAUCAAAAAUAAGACAUGAGGAUCACCCAUGUACUUAGUAAAAGUAAAUGAGAAGGGACAGGGUGAAA [JR_SS002_Sub403] | 29.4 | 21.4
17 | AAUCCAACUAGUCAGGAUAUCAGGCGUAAGACAUGAGGAUCACCCAUGUCCUAAGAACAAGUAACUGAGAAGGGACAGGGCGACC [JR_SS002_Sub411] | 62 | 57.6
18 | ACAAACAAAAAAGAGGAUAUCCUAAAUAAAACAUGAGGAUCACCCAUGUAAAAAAUAAUAAAAUGGGAGAAGGCUUACAACAAAC [SS2 M 24] | 21 | 15.6
19 | ACAAACAAAAGAGAGGAUAUCCAAAAGAAAACAUGAGGAUCACCCAUGUGAAAGAAAAUAAAAUGGGAGAAGGCUCAGAACAACA [Topaz 28] | 46.2 | 29.2
